Experimental data reported in patent US20210139589A1 (APEXIGEN, published 2021).

T1: human VISTA expressed on the cell surface (HEK293 cells transfected with human VISTA cDNA); native on human … (human, UniProt Q9H7M9 33-311)
T1 construct: whole, on cells; also called PD-1H
T1 sequence (looked up): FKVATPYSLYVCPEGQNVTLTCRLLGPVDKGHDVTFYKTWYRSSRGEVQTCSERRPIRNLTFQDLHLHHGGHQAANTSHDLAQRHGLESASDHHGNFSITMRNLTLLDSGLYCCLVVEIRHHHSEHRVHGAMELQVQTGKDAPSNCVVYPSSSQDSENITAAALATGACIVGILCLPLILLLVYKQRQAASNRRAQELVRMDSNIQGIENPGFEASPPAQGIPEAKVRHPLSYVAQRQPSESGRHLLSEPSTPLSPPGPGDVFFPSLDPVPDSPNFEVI


What was measured:
[1] = biological target: T1, human VISTA expressed on the cell …; assay: flow cytometry on HEK293 cells transfected with human VISTA, detection with anti-human Ig; EC50 table under the graph
Experimental: In order to examine the ability of the 7 humanized anti-VISTA antibodies to bind to cell surface expressed VISTA, HEK293 cells were transfected with human VISTA cDNA for 24 hours using Fugene 6 transfection reagent. Cells were harvested by trypsinization, re-suspended in FACS buffer and plated in 96-well plates. Cells were incubated with the concentration of anti-VISTA antibodies indicated in FIG. 5 for 30 minutes on ice. Antibodies were detected using anti-human Ig antibodies and binding was assessed on the MACSQuant flow cytometer (FIG. 5).

[2] = biological target: T1, human VISTA expressed on the cell …; assay: method not stated; table follows flow cytometry on HEK293 cells transfected with human VISTA

Row | EC50 [1] | Kd [2] | Binder
1 | 0.463 nM | 0.281 nM | humanized anti-VISTA antibody 29G7-HZD2 (antibody, human IgG1, kappa, V domains shown, kappa light chain) VH: EVQLVESGGGLVQPGGSLRLSCAASGFSLSSYAMGWVRQAPGKGLEWVGIIIVSGNIYYASWAKGRFTISRDNSKNTLYLQMNSLRAEDTAVYYCARGDGYTYGLWGQGTLVTVSS VL: DIQMTQSPSTLSASVGDRVTITCQASQSVYSRYLAWYQQKPGKAPKLLIYSASTLASGVPSRFSGSGSGTEFTLTISSLQPDDFATYYCQGTFYIPDYIDGFGGGTKVEIKR
2 | 0.477 nM | 0.295 nM | humanized anti-VISTA antibody 29G7-HZD4 (antibody, human IgG1, kappa, V domains shown, kappa light chain) VH: EVQLVESGGGLVQPGGSLRLSCAASGFSLSSYAMGWVRQAPGKGLEWVGIIIVSGNIYYASWAKGRFTISRDNSKNTLYLQMNSLRAEDTAVYYCARGDGYTYGLWGQGTLVTVSS VL: EIVMTQSPATLSLSPGERATLSCQASQSVYSRYLAWYQQKPGQAPRLLIYSASTLASGIPARFSGSGSGTDFTLTISSLQPEDFAVYYCQGTFYIPDYIDGFGGGTKVEIKR
3 | 1.75 nM | 1.31 nM | humanized anti-VISTA antibody 2D12-HZD3 (antibody, human IgG1, kappa, V domains shown, kappa light chain) VH: EVQLVESGGGLVQPGGSLRLSCAASGIDLSSYAMGWVRQAPGKGLEWVGIISSSGSAFYASWAKGRFTISRDNSKNTLYLQMNSLRAEDTAVYYCARHYAGYTTPYYFNFWGQGTLVTVSS VL: AIQMTQSPSSLSASVGDRVTITCQASENIYSNLAWYQQKPGKAPKVLIYAASDLASGVPSRFSGSGSGTDFTLTISSLQPEDFATYYCQQGFSSSNVDNAFGGGTKVEIKR
4 | 0.483 nM | 0.293 nM | humanized anti-VISTA antibody 3A5-HZD (antibody, human IgG1, kappa, V domains shown, kappa light chain) VH: EVQLVESGGGLVQPGGSLRLSCAASGFSLSSENWICWVRQAPGKGLEWVGCICGANGGSAYHANWVNGRFTISRDNSKNTLYLQMNSLRAEDTAVYYCARAAGVSNAYYFDLWGQGTLVTVSS VL: DIQMTQSPSSVSASVGDRVTITCQASQYIYINLAWYQQKPGKAPKLLIYDASDLASGVPSRFSGSGSGTDFTLTISSLQPEDFATYYCQCTYGGSTYGNAFGGGTKVEIKR
5 | 2.83 nM | 2.2 nM | humanized anti-VISTA antibody 14D8-HZD2 (antibody, human IgG1, kappa, V domains shown, kappa light chain) VH: EVQLVESGGGLVQPGGSLRLSCAASGFDLSSAYYMCWVRQAPGKGLEWVGCIATGSGSTYYASWAKGRFTISRDNSKNTLYLQMNSLRAEDTAVYYCARAPYYSYDGYDYALNLWGQGTLVTVSS VL: DIQMTQSPSSVSASVGDRVTITCQASEDIVTYLAWYQQKPGKAPKLLIYAASTLASGVPSRFSGSGSGTDFTLTISSLQPEDFATYYCQQTYNYADTDNAFGGGTKVEIKR
6 | 2.95 nM | 2.19 nM | humanized anti-VISTA antibody 14F1-HZD2 (antibody, human IgG1, kappa, V domains shown, kappa light chain) VH: EVQLLESGGGLVQPGGSLRLSCAASGFSFSSSYYMCWVRQAPGKGLEWVACFYAGFSGSTYYASWAKGRFTISRDNSKNTLYLQMNSLRAEDTAVYYCAKGASTYGYTGYDYAGDYFILWQPGTLVTVSS VL: DIQMTQSPSSVSASVGDRVTITCQASQNIYSNLAWYQQKPGKAPKLLIYAASNLASGVPSRFSGSGSGTDFTLTISSLQPEDFATYYCQSAYYSSSADSYNAFGGGTKVEIKR
7 | 1.84 nM | 1.35 nM | humanized anti-VISTA antibody 41A11-HZD2 (antibody, human IgG1, kappa, V domains shown, kappa light chain) VH: EVQLLESGGGLVQPGGSLRLSCAASGFSFSSSYYMCWVRQAPGKGLEWVGCFYAGFSGGTYYASWAKGRFTISRDNSKNTLYLQMNSLRAEDTAVYYCAKGANTYGYTGYDYAGDYFTLWGQGTLVTVSS VL: DIQMTQSPSTLSASVGDRVTITCQASQNIGSNLAWYQQKPGKAPKLLIYAASNLESGVPSRFSGSGSGTEFTLTISSLQPDDFATYYCQSAYYSSVDSYNTFGGGTKVEIKR
